Measured values: patent publication US20100173800

Target: MuA transposase (bacteriophage Mu) (UniProt P07636)
Test: cell_activity
Conditions: HeLa electroporation; linear transposon about 100 cfu/ug; 5 bp target duplication in sequenced clones (Table 1)

Sequence of MuA transposase (bacteriophage Mu) (P07636 whole entry): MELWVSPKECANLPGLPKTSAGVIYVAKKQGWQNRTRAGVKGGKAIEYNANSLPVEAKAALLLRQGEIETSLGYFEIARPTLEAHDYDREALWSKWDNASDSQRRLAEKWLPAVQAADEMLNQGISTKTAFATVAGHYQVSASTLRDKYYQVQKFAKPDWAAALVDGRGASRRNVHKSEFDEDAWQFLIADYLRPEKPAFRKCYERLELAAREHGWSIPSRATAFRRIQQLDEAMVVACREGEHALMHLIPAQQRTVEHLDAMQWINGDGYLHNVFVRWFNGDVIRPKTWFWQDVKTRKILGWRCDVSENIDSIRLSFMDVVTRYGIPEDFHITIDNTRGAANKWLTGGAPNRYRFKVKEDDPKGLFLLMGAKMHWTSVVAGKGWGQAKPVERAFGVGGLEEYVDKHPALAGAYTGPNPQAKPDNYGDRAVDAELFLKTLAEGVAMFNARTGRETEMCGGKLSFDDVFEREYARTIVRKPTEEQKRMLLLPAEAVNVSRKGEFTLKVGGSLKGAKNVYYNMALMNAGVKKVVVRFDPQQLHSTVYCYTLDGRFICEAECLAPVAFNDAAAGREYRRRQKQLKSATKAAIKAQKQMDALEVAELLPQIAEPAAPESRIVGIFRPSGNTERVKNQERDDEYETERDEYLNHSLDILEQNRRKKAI

Kan/Neo-Mu transposon (Kan/Neo-LoxP-Mu 2135 bp or Kan/Neo-p15A-Mu 2795 bp)
activity: 2400 cfu/µg DNA
